Test results from patent US6905818 (MAX PLANCK GESELLSCHAFT ZUR FORDERUNGDER WISSENSCHAFTEN, dated 2005).

Target: T1, LexA protein expressed from pBTM117c (UniProt P0A7C2 1-202)
T1 construct: range 1-220; also called strain x1a
T1 sequence (looked up): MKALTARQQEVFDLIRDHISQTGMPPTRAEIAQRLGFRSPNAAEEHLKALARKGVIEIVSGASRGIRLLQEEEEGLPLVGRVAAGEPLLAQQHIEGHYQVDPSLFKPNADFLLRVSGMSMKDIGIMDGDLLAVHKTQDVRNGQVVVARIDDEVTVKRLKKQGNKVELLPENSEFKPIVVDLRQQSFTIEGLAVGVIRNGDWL
Experiment: yeast two-hybrid, growth on SD-leu-trp-his and β-galactosidase membrane assay
Experimental: Two transformants from each transformation were investigated for the presence of protein—protein interactions by testing the ability of the yeast cells to grow on SD-leu-trp, SD-leu-trp-his, SD-leu+CAN and SD-trp+CHX plates and by the β-galactosidase membrane assay (Breeden and Nasmyth, 1985). […] After selection of the yeast strains harboring the different combinations of the two-hybrid plasmids on SD-leu+CAN and SD-trp+CHX the resulting strains were also analyzed by the β-galactosidase assay. After incubating the membrane containing all three strains on SD-trp+CHX medium only progeny of the yeast strain that originally harbored both the plasmids pBTM117c-HIP1 & pGAD427 yet which had lost the pGAD427 plasmid through counterselection turned blue after incubating in X-Gal solution. […] In comparison, the yeast strain harboring both the plasmids pBTM117c-SIM1 & pGAD427-ARNT is a positive clone that expresses interacting LexA and GAL4ad fusion proteins, because both the LexA and the Gal4ad fusion proteins are necessary for the activation of the reporter genes. […] With the membranes from the SD-leu+CAN plate false positive clones expressing an auto-activating GAL4ad-LexA fusion protein were also detected by the β-galactosidase assay.

B1: GAL4ad expressed from pGAD427 (other, yeast, UniProt P04386 768-881, looked up)
chain: ANFNQSGNIADSSLSFTFTNSSNGPNLITTQTNSQALSQPIASSNVHDNFMNNEITASKIDDGNNSKPLSPGWTDQTAYNAFGITTGMFNTTTMDDVYNYLFDDEDTPPNPKKE
notes: range 768-881; also called strain y1α
B1: no binding.
